The labels stand for the following.
B1: full-length E12K/D13K AcA-EI Shaker Kv channel (enhanced inactivation mutant, initiator Met removed, Ala2 acetylated) (natural protein, Drosophila melanogaster, UniProt P08510 2-655, looked up)
chain: AAVAGLYGLGKKRQHRKKQQQQQQHQKEQLEQKEEQKKIAERKLQLREQQLQRNSLDGYGSLPKLSSQDEEGGAGHGFGGGPQHFEPIPHDHDFCERVVINVSGLRFETQLRTLNQFPDTLLGDPARRLRYFDPLRNEYFFDRSRPSFDAILYYYQSGGRLRRPVNVPLDVFSEEIKFYELGDQAINKFREDEGFIKEEERPLPDNEKQRKVWLLFEYPESSQAARVVAIISVFVILLSIVIFCLETLPEFKHYKVFNTTTNGTKIEEDEVPDITDPFFLIETLCIIWFTFELTVRFLACPNKLNFCRDVMNVIDIIAIIPYFITLATVVAEEEDTLNLPKAPVSPQDKSSNQAMSLAILRVIRLVRVFRIFKLSRHSKGLQILGRTLKASMRELGLLIFFLFIGVVLFSSAVYFAEAGSENSFFKSIPDAFWWAVVTMTTVGYGDMTPVGVWGKIVGSLCAIAGVLTIALPVPVIVSNFNYFYHRETDQEEMQSQNFNHVTSCPYLPGTLGQHMKKSSLSESSSDMMDLDDGVESTPGLTETHPGRSAVAPFLGAQQQQQQPVASSLSMSIDKQLQHPLQQLTQTQLYQQQQQQQQQQQNGFKQQQQQTQQQLQQQQSHTINASAAAATSGSGSSGLTMRHNNALAVSIETDV
modifications: acetyl on the N-terminal Ala2 (initiator Met removed), by mass spectrometry
notes: Shaker Kv channel, Drosophila melanogaster; Residues of the TEV site may remain at the C terminus (surmise); not shown: mVenus, C-terminal, cleaved; polyhistidine, C-terminal, cleaved

Series [1] deals with the molecule itself. In words: cryo-EM structure; channel in MSP1E3D1 lipid nanodiscs (POPC:POPG:POPE 3:1:1), 20 mM Tris pH 7.5, 4 mM KCl, 46 mM NaCl; C4 refinement and focused classification in C1.
Series [2] deals with B1. In words: cryo-EM structure; AcA-EI Shaker in MSP1E3D1 lipid nanodiscs, 4 mM KCl, 46 mM NaCl, incubated with 1 mM free acetylated N-terminal peptide for 30 min before grid preparation; C1. The following applies: both partners purified.

Ends that are not written are not given here.

With B1, the binding result in series [1] was “binds”.

B2: acetylated free N-terminal peptide of EI Shaker (Ac-AAVAGLYGLGKKRQHRKKQ) (peptide)
peptide: Ac-AAVAGLYGLGKKRQHRKKQ
notes: N terminus of the Shaker Kv channel without the initiator Met, with the E12K and D13K changes of EI Shaker; molecular weight 2,151 Da; also called additional N-terminal peptide; source: synthetic peptide (GenScript)
Take B2: the binding result in series [2] was “binds”.

B3: GT Shaker Kv channel (N-terminally mVenus tagged Shaker after TEV cleavage, with additional Gly and Thr on the N terminus) (natural protein, Drosophila melanogaster)
chain: GTMAAVAGLYGLGEDRQHRKKQQQQQQHQKEQLEQKEEQKKIAERKLQLREQQLQRNSLDGYGSLPKLSSQDEEGGAGHGFGGGPQHFEPIPHDHDFCERVVINVSGLRFETQLRTLNQFPDTLLGDPARRLRYFDPLRNEYFFDRSRPSFDAILYYYQSGGRLRRPVNVPLDVFSEEIKFYELGDQAINKFREDEGFIKEEERPLPDNEKQRKVWLLFEYPESSQAARVVAIISVFVILLSIVIFCLETLPEFKHYKVFNTTTNGTKIEEDEVPDITDPFFLIETLCIIWFTFELTVRFLACPNKLNFCRDVMNVIDIIAIIPYFITLATVVAEEEDTLNLPKAPVSPQDKSSNQAMSLAILRVIRLVRVFRIFKLSRHSKGLQILGRTLKASMRELGLLIFFLFIGVVLFSSAVYFAEAGSENSFFKSIPDAFWWAVVTMTTVGYGDMTPVGVWGKIVGSLCAIAGVLTIALPVPVIVSNFNYFYHRETDQEEMQSQNFNHVTSCPYLPGTLGQHMKKSSLSESSSDMMDLDDGVESTPGLTETHPGRSAVAPFLGAQQQQQQPVASSLSMSIDKQLQHPLQQLTQTQLYQQQQQQQQQQQNGFKQQQQQTQQQLQQQQSHTINASAAAATSGSGSSGLTMRHNNALAVSIETDV
notes: two additional residues (Gly and Thr) left on the N terminus after removal of the mVenus tag with TEV protease, confirmed by mass spectrometry; Shaker Kv channel, Drosophila melanogaster, full-length gene; the N-terminal Met stands at position 3 of this construct; Purified by the N-terminal tag, so at least one N terminus is intact in each tetramer; other N termini may be truncated by …
Turning to B3, the binding result in series [1] is “binds”.

B4: full-length wild-type (WT) Shaker Kv channel, C-terminally mVenus tagged, tag removed (natural protein, Drosophila melanogaster, UniProt P08510 1-655, looked up)
chain: MAAVAGLYGLGEDRQHRKKQQQQQQHQKEQLEQKEEQKKIAERKLQLREQQLQRNSLDGYGSLPKLSSQDEEGGAGHGFGGGPQHFEPIPHDHDFCERVVINVSGLRFETQLRTLNQFPDTLLGDPARRLRYFDPLRNEYFFDRSRPSFDAILYYYQSGGRLRRPVNVPLDVFSEEIKFYELGDQAINKFREDEGFIKEEERPLPDNEKQRKVWLLFEYPESSQAARVVAIISVFVILLSIVIFCLETLPEFKHYKVFNTTTNGTKIEEDEVPDITDPFFLIETLCIIWFTFELTVRFLACPNKLNFCRDVMNVIDIIAIIPYFITLATVVAEEEDTLNLPKAPVSPQDKSSNQAMSLAILRVIRLVRVFRIFKLSRHSKGLQILGRTLKASMRELGLLIFFLFIGVVLFSSAVYFAEAGSENSFFKSIPDAFWWAVVTMTTVGYGDMTPVGVWGKIVGSLCAIAGVLTIALPVPVIVSNFNYFYHRETDQEEMQSQNFNHVTSCPYLPGTLGQHMKKSSLSESSSDMMDLDDGVESTPGLTETHPGRSAVAPFLGAQQQQQQPVASSLSMSIDKQLQHPLQQLTQTQLYQQQQQQQQQQQNGFKQQQQQTQQQLQQQQSHTINASAAAATSGSGSSGLTMRHNNALAVSIETDV
notes: Shaker Kv channel, Drosophila melanogaster, full-length gene; Residues of the TEV site may remain at the C terminus (surmise); also called C-terminally tagged WT Shaker; C-terminal mVenus-tagged Shaker; not shown: mVenus, C-terminal, cleaved; polyhistidine, C-terminal, cleaved
For B4, the binding result in series [1] is listed as “binds”.
